This series deals with the molecule itself. The series is described as follows: SEC; supernatant (500 µl) of transfected HEK293T cells with FLAG-tagged Otolin on Superdex 200 HR 10/30 in PBS; fractions immunoblotted with anti-FLAG M2. (In gel filtration, larger molecules generally elute earlier.)

B1: C-terminal FLAG-tagged Otolin (natural protein, mouse, UniProt Q4ZJM7 24-482, looked up)
chain: KTTPYTKFTKKSEGKEMLKGLKPSSGFFLDGEETVHTETAAMAEPTTGSPALAMAESTAGPSASATTRLLPFESFSLDTTGFVLNCCHCCSFVTGQKGEPGKMGKQGPKGETGDTGSPGHPGTTGPQGPKGQKGEKGLKGDRGDQGAGGIPGYPGKPGEQGALGPKGDKGTIGPAGTKGQKGSKGELCGNGTKGEKGDPGASGAHGFIGEPGAKGEKGGVGEKGYRGDLGERGEKGQKGEKGMEGEKGSRGDVGSEGKRGSDGLPGLRGDSGPKGEKGEIGSPGFTGPAGPKGELGSKGVRGPTGKKGSRGVKGSKGEATQVPQSAFSALLSKPFPPPNVPIKFDKILSNDQGDYSPVTGKFNCSVPGTYIFSYHVTVRGRPARISLVARNRKQFKSRETLYGQQVDQASLLLILKLSAGDQVWLEVSKDWNGLYVGPEDDSIFSGFLLYPEETFSKSP
modifications: hydroxyproline at Pro-141, 144, 174, 177, 180, 222, 234, 288 and 306; Lys-189 and Lys-315 hydroxylated and glycosylated with a glucosyl-galactosyl group (mass spectrometry of purified recombinant Otolin)
notes: Otolin, mouse, GenBank DQ002405; entire coding region (482 amino acids, own signal peptide) cloned and expressed; the secreted protein was collected from the medium; also called otolin-FLAG; recombinant Otolin; source: HEK293T, transiently transfected; not shown: FLAG, C-terminal, kept
In the case of B1, the binding result was “binds”.

Source of the values: paper PMC2939893, “Mammalian Otolin: A Multimeric Glycoprotein Specific to the Inner Ear that Interacts with Otoconial Matrix Protein Otoconin-90 and Cerebellin-1” (PLoS ONE, 2010).
